Laboratory results from IntAct's records for PubMed 11743162.

B1: Protein BZZ1 (Saccharomyces cerevisiae), P38822 (parent)
chain: MSADLSIGNEIKDSFKETHKWVQNNLKWLKDIEQFYRERAKLEKDYSERLSRLSAEYFNKKSSTSVPISVGDTPTTTPGSIEAAGVVAWNEILSQTDMISKDHDQLSTDFENHVANQLSGLFTKLDMTLSKINGFNNDMVNKKDNIYHELEKAKKDYDEACSTMEMARNRYTKASNDRNKKKLDEKEMEMNKCKNEYLIKINQANRTKDKYYFQDVPEVLDLLQDVNEAKTLFLNDLWLKAASVENDLGANVSKRLQAANSVVKQNKPSLNTAIFIKHNLKNWKEPQDFVYKPSPVWHDDEKFAVPSSLEVEDLRIKLAKAENDYNSLQDKTQNELSKLSTLNKIKHEMKTNEDNINATKFYDTLKEYLNVVSPFTSHETLKLQAEVQIESIQNNVPEEYDLSTDNIDLSKTKKKSGIFSKFKHNILNVDSKPSSGGSTGNGNGGPLHITSLFNTSRRTRLGSAPNNAGEDSDNNSIRTTSTNNTKKTTQNSSDDGKNKVLYAYVQKDDDEITITPGDKISLVARDTGSGWTKINNDTTGETGLVPTTYIRISSAATVKANDRGPAPEVPPPRRSTLPVRTMEAIYAYEAQGDDEISIDPGDIITVIRGDDGSGWTYGECDGLKGLFPTSYCK
partner: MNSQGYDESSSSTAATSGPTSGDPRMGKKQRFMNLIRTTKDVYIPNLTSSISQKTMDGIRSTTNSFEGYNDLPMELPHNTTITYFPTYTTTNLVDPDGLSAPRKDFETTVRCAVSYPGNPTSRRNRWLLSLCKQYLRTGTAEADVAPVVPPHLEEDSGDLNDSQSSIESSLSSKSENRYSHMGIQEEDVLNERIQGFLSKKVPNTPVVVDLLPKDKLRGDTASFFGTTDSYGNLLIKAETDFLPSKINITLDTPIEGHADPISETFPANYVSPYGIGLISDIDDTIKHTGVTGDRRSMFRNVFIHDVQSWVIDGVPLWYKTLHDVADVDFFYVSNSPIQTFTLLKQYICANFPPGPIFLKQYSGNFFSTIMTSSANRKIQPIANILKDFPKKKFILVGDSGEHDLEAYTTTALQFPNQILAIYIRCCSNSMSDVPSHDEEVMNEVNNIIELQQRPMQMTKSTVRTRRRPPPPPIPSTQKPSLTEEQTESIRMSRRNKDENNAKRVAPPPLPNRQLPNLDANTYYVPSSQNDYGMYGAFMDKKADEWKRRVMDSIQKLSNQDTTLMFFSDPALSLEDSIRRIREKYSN
B2: High osmolarity signaling protein SHO1 (Saccharomyces cerevisiae), P40073 (parent)
chain: MSISSKIRPTPRKPSRMATDHSFKMKKFYADPFAISSISLAIVSWVIAIGGSISSASTNESFPRFTWWGIVYQFLIICSLMLFYCFDLVDHYRIFITTSIAVAFVYNTNSATNLVYADGPKKAAASAGVILLSIINLIWILYYGGDNASPTNRWIDSFSIKGIRPSPLENSLHRARRRGNRNTTPYQNNVYNDAIRDSGYATQFDGYPQQQPSHTNYVSSTALAGFENTQPNTSEAVNLHLNTLQQRINSASNAKETNDNSNNQTNTNIGNTFDTDFSNGNTETTMGDTLGLYSDIGDDNFIYKAKALYPYDADDDDAYEISFEQNEILQVSDIEGRWWKARRANGETGIIPSNYVQLIDGPEEMHR
B3: Protein BZZ1 (Saccharomyces cerevisiae), P38822 (parent)
chain: B1 chain

Variants of: B1
Conditions: with app1_yeast APP1, P53933

Variant	effect of a mutation on the interaction
W531S;W615S	decreasing interaction

Variants of: B2
Conditions: with las17_yeast LAS17, Q12446
Target sequence in this assay (Q12446 whole entry): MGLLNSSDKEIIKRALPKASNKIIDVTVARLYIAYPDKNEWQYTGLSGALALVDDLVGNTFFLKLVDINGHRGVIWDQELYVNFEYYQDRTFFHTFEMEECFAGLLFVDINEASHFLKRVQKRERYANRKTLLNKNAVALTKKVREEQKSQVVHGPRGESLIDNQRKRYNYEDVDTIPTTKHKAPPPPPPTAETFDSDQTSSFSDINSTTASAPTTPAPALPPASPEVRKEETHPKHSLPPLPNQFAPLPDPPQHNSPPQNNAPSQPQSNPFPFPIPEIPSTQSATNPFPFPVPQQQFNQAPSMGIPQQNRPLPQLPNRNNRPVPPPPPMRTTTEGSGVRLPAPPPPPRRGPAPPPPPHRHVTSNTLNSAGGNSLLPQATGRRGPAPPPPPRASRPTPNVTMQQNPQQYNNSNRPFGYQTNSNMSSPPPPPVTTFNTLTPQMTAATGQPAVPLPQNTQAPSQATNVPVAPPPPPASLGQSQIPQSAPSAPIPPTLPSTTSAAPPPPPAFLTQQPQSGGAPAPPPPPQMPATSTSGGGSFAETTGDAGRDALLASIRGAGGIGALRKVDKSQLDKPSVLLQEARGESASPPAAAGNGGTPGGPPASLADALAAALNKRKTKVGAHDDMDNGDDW

Variant	effect of a mutation on the interaction
P352A	decreasing interaction

Variants of: B3
Conditions: with las17_yeast LAS17, Q12446
Target sequence in this assay (Q12446 whole entry): as above

Variant	effect of a mutation on the interaction
W531S;W615S	decreasing interaction
W531S	decreasing interaction
W615S	decreasing interaction
